The values below come from paper PMC10397247.

One test addresses T1, P8SHb.
T1 chain: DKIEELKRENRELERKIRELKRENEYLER
Put plainly: two-hybrid library CCNG1.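 Further: natural log of median RNA to DNA barcode read ratio; higher means stronger binding.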

For another test, the target named is T2, P9SHb.
T2 chain: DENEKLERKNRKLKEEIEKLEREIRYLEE
Put plainly: two-hybrid library CCNG1.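 Further: natural log of median RNA to DNA barcode read ratio; higher means stronger binding.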

Another test addresses T3, 4H607-bN.
T3 chain: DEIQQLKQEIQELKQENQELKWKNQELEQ
The test is described as follows: two-hybrid library CCNG1.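 Further: natural log of median RNA to DNA barcode read ratio; higher means stronger binding.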

A further test has as its target T4, 4H687-bN.
T4 chain: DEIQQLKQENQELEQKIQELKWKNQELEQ
The test is described as follows: two-hybrid library CCNG1.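 Further: natural log of median RNA to DNA barcode read ratio; higher means stronger binding.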

The target of the next test is T5, 4H717-bN.
T5 chain: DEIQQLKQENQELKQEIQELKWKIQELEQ
Put plainly: two-hybrid library CCNG1.

Another test concerns the target T6, 4H72-bN.
T6 chain: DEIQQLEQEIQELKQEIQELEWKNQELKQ
Put plainly: two-hybrid library CCNG1.

Another test addresses T7, 4H754-bN.
T7 chain: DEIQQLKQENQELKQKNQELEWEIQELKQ
The test is described as follows: two-hybrid library CCNG1.

In the next test the target is T8, 4H797-bN.
T8 chain: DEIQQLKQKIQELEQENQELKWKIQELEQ
The test is described as follows: two-hybrid library CCNG1.

The target in a further test is T9, 4H883-bN.
T9 chain: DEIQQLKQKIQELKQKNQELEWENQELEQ
The test is described as follows: two-hybrid library CCNG1.

Another test has as its target T10, 4H908-bN.
T10 chain: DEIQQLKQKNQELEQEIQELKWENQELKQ
Put plainly: two-hybrid library CCNG1.

In a further test the target is T11, 4H918-bN.
T11 chain: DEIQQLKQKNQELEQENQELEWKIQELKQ
The test is described as follows: two-hybrid library CCNG1.

A further test concerns the target T12, 4H953-bN.
T12 chain: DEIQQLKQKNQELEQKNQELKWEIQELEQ
Put plainly: two-hybrid library CCNG1.

A further test has as its target T13, 4H967-bN.
T13 chain: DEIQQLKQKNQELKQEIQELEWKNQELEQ
The test is described as follows: two-hybrid library CCNG1.

Another test deals with T14, 4H3638-bH.
T14 chain: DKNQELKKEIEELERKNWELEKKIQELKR
Put plainly: two-hybrid library CCNG1.

A further test concerns the target T15, 4H3817-bH.
T15 chain: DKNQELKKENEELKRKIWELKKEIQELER
Put plainly: two-hybrid library CCNG1.

A further test has as its target T16, 4H3974-bH.
T16 chain: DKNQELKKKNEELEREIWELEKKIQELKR
Put plainly: two-hybrid library CCNG1.

The next test has as its target T17, 4H570-bH.
T17 chain: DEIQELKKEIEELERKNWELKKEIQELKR
The test is described as follows: two-hybrid library CCNG1.

Another test deals with T18, 4H584-bH.
T18 chain: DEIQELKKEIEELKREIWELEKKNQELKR
The test is described as follows: two-hybrid library CCNG1.

A further test concerns the target T19, 4H619-bH.
T19 chain: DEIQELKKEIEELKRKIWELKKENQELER
Put plainly: two-hybrid library CCNG1.

In another test the target is T20, 4H850-bH.
T20 chain: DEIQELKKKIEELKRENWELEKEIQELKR
Put plainly: two-hybrid library CCNG1.

Another test concerns the target T21, 4H906-bH.
T21 chain: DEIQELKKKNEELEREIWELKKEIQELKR
Put plainly: two-hybrid library CCNG1.

The target in another test is T22, 4H3613-bH.
T22 chain: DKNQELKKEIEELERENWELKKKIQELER
The test is described as follows: two-hybrid library CCNG1.

The next test deals with T23, 4H3628-bH.
T23 chain: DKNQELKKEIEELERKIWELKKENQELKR
The test is described as follows: two-hybrid library CCNG1.

A further test deals with T24, 4H3858-bH.
T24 chain: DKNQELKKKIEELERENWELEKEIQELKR
The test is described as follows: two-hybrid library CCNG1.

The next test concerns the target T25, 4H3926-bH.
T25 chain: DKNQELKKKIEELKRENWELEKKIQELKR
Put plainly: two-hybrid library CCNG1.

For the next test, the target named is T26, 4H591-bH.
T26 chain: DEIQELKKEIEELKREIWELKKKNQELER
Put plainly: two-hybrid library CCNG1.

The next test addresses T27, 4H626-bH.
T27 chain: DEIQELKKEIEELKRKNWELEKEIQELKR
The test is described as follows: two-hybrid library CCNG1.

A further test has as its target T28, O6.
T28 chain: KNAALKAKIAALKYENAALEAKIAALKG
Put plainly: two-hybrid library CC0. Particulars: mean of both orientations.

The next test concerns the target T29, O7.
T29 chain: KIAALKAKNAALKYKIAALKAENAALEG
The test is described as follows: two-hybrid library CC0. Particulars: mean of both orientations.

In the next test the target is T30, O8.
T30 chain: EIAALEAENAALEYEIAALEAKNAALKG
The test is described as follows: two-hybrid library CC0. The conditions noted are these: mean of both orientations.

For a further test, the target named is T31, O9.
T31 chain: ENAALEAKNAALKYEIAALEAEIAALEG
Put plainly: two-hybrid library CC0. The conditions noted are these: mean of both orientations.

A further test deals with T32, 4H2931-bH.
T32 chain: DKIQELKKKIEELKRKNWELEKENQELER
The test is described as follows: two-hybrid library CCNG1.

In a further test the target is T33, 4H3041-bH.
T33 chain: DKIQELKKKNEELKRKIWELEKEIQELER
The test is described as follows: two-hybrid library CCNG1.

For another test, the target named is T34, 4H3297-bH.
T34 chain: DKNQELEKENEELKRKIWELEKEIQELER
Put plainly: two-hybrid library CCNG1.

For a further test, the target named is T35, 4H3364-bH.
T35 chain: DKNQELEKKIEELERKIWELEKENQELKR
Put plainly: two-hybrid library CCNG1.

Another test addresses T36, 4H3381-bH.
T36 chain: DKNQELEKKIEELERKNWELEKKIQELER
The test is described as follows: two-hybrid library CCNG1.

The next test has as its target T37, 4H349-bH.
T37 chain: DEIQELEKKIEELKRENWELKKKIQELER
Put plainly: two-hybrid library CCNG1.

A further test has as its target T38, 4H56-bH.
T38 chain: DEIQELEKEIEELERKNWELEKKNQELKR
Put plainly: two-hybrid library CCNG1.

Another test concerns the target T39, 4H730-bH.
T39 chain: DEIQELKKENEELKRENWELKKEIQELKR
Put plainly: two-hybrid library CCNG1.

The next test addresses T40, 4H796-bH.
T40 chain: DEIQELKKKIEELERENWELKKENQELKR
Put plainly: two-hybrid library CCNG1.

The next test addresses T41, 4H949-bH.
T41 chain: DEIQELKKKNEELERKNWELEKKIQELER
Put plainly: two-hybrid library CCNG1.

Consider DKIEELKRENRELERKIRELKRENEYLER [P8SHb], for which the interaction score in the test with P8SHb was -0.644; in the test with P9SHb, 0.191.

With DEIQQLKQEIQELKQENQELKWKNQELEQ [4H607-bN], the interaction score with 4H607-bN was 0.145; with 4H687-bN, -1.48; with 4H717-bN it was -1.11; with 4H72-bN it was -1.65; in the test with 4H754-bN, -1.32; with 4H797-bN it was -0.52. Moreover, the interaction score is -0.644 with 4H883-bN; -0.294 with 4H908-bN; 0.0461 with 4H918-bN; -1.56 with 4H953-bN; -0.227 with 4H967-bN; -1.61 with P8SHb.

Regarding DKNQELKKEIEELERKNWELEKKIQELKR [4H3638-bH], the interaction score with 4H3638-bH is -1.34; with 4H3817-bH it was -0.0824; with 4H3974-bH it was -0.916; with 4H570-bH it was -0.4; with 4H584-bH, -0.722; with 4H619-bH, -1.47. Moreover, the interaction score with 4H850-bH is 1.04; with 4H906-bH, -0.762.

For the molecule DKNQELKKEIEELERENWELKKKIQELER [4H3613-bH], the interaction score is 0.898 with 4H3613-bH; -0.609 in the test with 4H3628-bH; -0.0066 with 4H3817-bH; 0.0148 in the test with 4H3858-bH; 1.59 in the test with 4H3926-bH; -1.15 in the test with 4H3974-bH. Besides, the interaction score with 4H570-bH is -0.821; with 4H591-bH it was -2.09; with 4H626-bH it was -1.94; in the test with 4H850-bH, 1.37; with 4H906-bH it was -1.07.

Take KNAALKAKIAALKYENAALEAKIAALKG [O6]: the interaction score with O6 is -2.7; in the test with O7, -2.72; with O8 it was -1.78; with O9 it was -2.41.

Take DKNQELKKEIEELERKIWELKKENQELKR [4H3628-bH]: the interaction score was 0.896 with 4H3628-bH; 0.965 with 4H3817-bH; 0.42 with 4H3858-bH; 0.588 with 4H3926-bH; 1.22 with 4H3974-bH; -1.36 with 4H570-bH. Besides, the interaction score was 0.0937 with 4H591-bH, -0.0728 with 4H626-bH, 0.701 in the test with 4H850-bH and -0.107 with 4H906-bH.

For DKIQELKKKIEELKRKNWELEKENQELER [4H2931-bH], the interaction score is -0.492 with 4H2931-bH; -0.279 in the test with 4H3041-bH; 0.571 with 4H3297-bH; -0.507 with 4H3364-bH; -0.508 with 4H3381-bH; -0.83 in the test with 4H349-bH. Besides, the interaction score was -0.623 with 4H56-bH, -0.532 with 4H730-bH, -0.865 with 4H796-bH and -0.384 with 4H949-bH.
